The text below walks through data of the RNAGym collection of RNA variant scans (doi:10.1093/molbev/msab373).

B1: Azoarcus group I ribozyme (parent)
chain: GUGCCUUGCGCCGGGAAACCACGCAAGGGAUGGUGUCAAAUUCGGCGAAACCUAAGCGCCCGCCCGGGCGUAUGGCAACGCCGAGCCAAGCUUCGGCGCCUGCGCCGAUGAAGGUGUAGAGACUAGACGGCACCCACCUAAGGCAAACGCUAUGGUGAAGGCAUAGUCCAGGGAGUGGCGAAAGUCACACAAACCGG

The variants in the series derive from B1. Put plainly: reverse-splicing fitness (ratio to wild type); higher = more active; in vitro selection; Mg2+ level not given. In outline: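 An in vitro group I ribozyme library with randomized positions was T7-transcribed and gel-purified. In triplicate, 10 pmol RNA in EPPS pH 7.5 was reacted with 50 pmoles of a 30-nt RNA substrate for 1 h at 37 °C across several added MgCl2 levels (1–48 mM), then stopped with EDTA. Products were reverse transcribed from a substrate-complementary primer, PCR-amplified and sequenced (HiSeq 4000). Fitness is a variant's read proportion after selection over that before, normalised to wild type.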
In the case of C82G A145C C169G, the reverse-splicing fitness turned out to be 0.0115.

As to C82G A120U C169U U176G, the reverse-splicing fitness was 0.00154.

As to C82G A120U C169U U176C, the reverse-splicing fitness was 0.00518.

C82G A120U C169U U176A: the reverse-splicing fitness was 0.00406.

Take C82G A145U C150A C169U: the reverse-splicing fitness was 0.00756.

As to C82G A145U C150A C169A, the reverse-splicing fitness is 0.00972.

For C82G A145U C150A C169G, the reverse-splicing fitness was found to be 0.00669.

With C82G A145U C150G C169G U176C, the reverse-splicing fitness amounted to 0.00645.

For C82G A145U C150G C169G U176G, the reverse-splicing fitness amounted to 0.00508.

Turning to C82G A145U C150G C169G U176A, the reverse-splicing fitness was 0.00882.

As to C82G A145C C150G C169U U176C, the reverse-splicing fitness was 0.00852.

Regarding C82G A145C C150G C169U U176A, the reverse-splicing fitness is 0.0101.

Take C82G A145C C150G C169U U176G: the reverse-splicing fitness was found to be 0.00486.

As to C82G A145G C150A C169A U176G, the reverse-splicing fitness was found to be 0.00731.

C82G A145G C150A C169A U176C: the reverse-splicing fitness came out at 0.0238.

On to C82G A145G C150A C169A U176A, for which the reverse-splicing fitness is 0.0204.

Take C82G A145G U176C: the reverse-splicing fitness worked out at 0.374.

With C82G A145G U176G, the reverse-splicing fitness amounted to 0.133.

Consider C82G A145G U176A, for which the reverse-splicing fitness is 0.341.

For C82G A145C C169A U176A, the reverse-splicing fitness was found to be 0.0121.

C82G A145C C169A U176G: the reverse-splicing fitness turned out to be 0.00481.

Turning to C82G A145C C169A U176C, the reverse-splicing fitness was found to be 0.00541.

As to C82G A145G C150U C169U U176G, the reverse-splicing fitness was 0.0045.

As to C82G A145G C150U C169U U176C, the reverse-splicing fitness was found to be 0.015.

Turning to C82G A145G C150U C169U U176A, the reverse-splicing fitness was determined as 0.0145.

For C82G A145G C150G C169G U176C, the reverse-splicing fitness came to 0.0146.

For C82G A145G C150G C169G U176G, the reverse-splicing fitness was determined as 0.00613.

With C82G A145G C150G C169G U176A, the reverse-splicing fitness was determined as 0.0113.

For the variant C82G A145U C150G C169U, the reverse-splicing fitness turned out to be 0.0092.

For C82G A145U C150G C169A, the reverse-splicing fitness stood at 0.00874.

Take C82G A145U C150G C169G: the reverse-splicing fitness was 0.00774.

For the variant C82G A120U C150A C169G, the reverse-splicing fitness amounted to 0.00295.

Consider C82G A120U C150A C169A, for which the reverse-splicing fitness was found to be 0.00401.

In the case of C82G A120U C150A C169U, the reverse-splicing fitness turned out to be 0.00426.

In the case of C82G A120U A145G C150U C169G U176C, the reverse-splicing fitness stood at 0.00419.

Turning to C82G A120U A145G C150U C169G U176G, the reverse-splicing fitness is 0.00186.

For C82G A120U A145G C150U C169G U176A, the reverse-splicing fitness is 0.00552.

Regarding C82G A120U C150G U176C, the reverse-splicing fitness is 0.0103.

On to C82G A120U C150G U176A, for which the reverse-splicing fitness is 0.0062.

On to C82G A120U C150G U176G, for which the reverse-splicing fitness turned out to be 0.00297.

On to C82G A145U C150U C169G U176A, for which the reverse-splicing fitness was determined as 0.0117.

As for C82G A145U C150U C169G U176G, the reverse-splicing fitness is 0.00545.

Consider C82G A145U C150U C169G U176C, for which the reverse-splicing fitness worked out at 0.0131.

C82G A145G C150U: the reverse-splicing fitness is 0.401.

Turning to C82G A145G C150A, the reverse-splicing fitness worked out at 0.0607.

In the case of C82G A145G C150G, the reverse-splicing fitness is 0.05.

In the case of C82G A120U A145U C150G U176C, the reverse-splicing fitness was 0.0112.

In the case of C82G A120U A145U C150G U176A, the reverse-splicing fitness came out at 0.00715.

For C82G A120U A145U C150G U176G, the reverse-splicing fitness was 0.00267.

With C82G A145G C150G C169U U176C, the reverse-splicing fitness was 0.0131.

Turning to C82G A145G C150G C169U U176A, the reverse-splicing fitness was determined as 0.0126.

For C82G A145G C150G C169U U176G, the reverse-splicing fitness was 0.0072.

For the variant C82G A145G C169U U176A, the reverse-splicing fitness was 0.0138.

With C82G A145G C169U U176G, the reverse-splicing fitness was determined as 0.00412.

C82G A145G C169U U176C: the reverse-splicing fitness was 0.0155.

Take C82G A120U A145U C150U U176C: the reverse-splicing fitness was found to be 0.0591.

With C82G A120U A145U C150U U176G, the reverse-splicing fitness was 0.0126.

Consider C82G A120U A145U C150U U176A, for which the reverse-splicing fitness came out at 0.0449.

Turning to C82G A145C C150A C169G U176C, the reverse-splicing fitness worked out at 0.0105.

Regarding C82G A145C C150A C169G U176G, the reverse-splicing fitness stood at 0.00624.

For C82G A145C C150A C169G U176A, the reverse-splicing fitness came out at 0.0223.

On to C82G A120U C169A U176C, for which the reverse-splicing fitness worked out at 0.00259.

Take C82G A120U C169A U176A: the reverse-splicing fitness worked out at 0.00247.

For the variant C82G A120U C169A U176G, the reverse-splicing fitness came out at 0.000985.

C82G A120U A145G C150U C169U: the reverse-splicing fitness came out at 0.00803.

Consider C82G A120U A145G C150U C169G, for which the reverse-splicing fitness was 0.00765.

For the variant C82G A120U A145U C150U C169U U176G, the reverse-splicing fitness worked out at 0.00159.

Take C82G A120U A145U C150U C169U U176A: the reverse-splicing fitness is 0.00283.

As for C82G A120U A145U C150U C169U U176C, the reverse-splicing fitness was determined as 0.00342.

C82G A120U C150U C169A: the reverse-splicing fitness came out at 0.00461.

Consider C82G A120U C150U C169G, for which the reverse-splicing fitness turned out to be 0.00527.

As for C82G A120U C150U C169U, the reverse-splicing fitness was determined as 0.00575.

Regarding C82G A145G C169A U176G, the reverse-splicing fitness worked out at 0.00413.

In the case of C82G A145G C169A U176C, the reverse-splicing fitness was 0.0249.

Turning to C82G A145G C169A U176A, the reverse-splicing fitness is 0.0187.

For the variant C82G A120U C150G C169A, the reverse-splicing fitness worked out at 0.00734.

Turning to C82G A120U C150G C169G, the reverse-splicing fitness is 0.0053.

Take C82G A120U C150G C169U: the reverse-splicing fitness came to 0.00456.

As to C82G A145U C150U C169G, the reverse-splicing fitness was 0.0103.

With C82G A145U C150U C169A, the reverse-splicing fitness was 0.00964.

On to C82G A145U C150U C169U, for which the reverse-splicing fitness came to 0.0123.

Take C82G A120U A145U C169A U176C: the reverse-splicing fitness is 0.00205.

As to C82G A120U A145U C169A U176A, the reverse-splicing fitness is 0.00245.
